These results are taken from article PMC3160658.

In data set [1] the target is T1, RAD52 Y104D (Homo sapiens, UniProt P43351 1-418, Y104D).
T1 sequence: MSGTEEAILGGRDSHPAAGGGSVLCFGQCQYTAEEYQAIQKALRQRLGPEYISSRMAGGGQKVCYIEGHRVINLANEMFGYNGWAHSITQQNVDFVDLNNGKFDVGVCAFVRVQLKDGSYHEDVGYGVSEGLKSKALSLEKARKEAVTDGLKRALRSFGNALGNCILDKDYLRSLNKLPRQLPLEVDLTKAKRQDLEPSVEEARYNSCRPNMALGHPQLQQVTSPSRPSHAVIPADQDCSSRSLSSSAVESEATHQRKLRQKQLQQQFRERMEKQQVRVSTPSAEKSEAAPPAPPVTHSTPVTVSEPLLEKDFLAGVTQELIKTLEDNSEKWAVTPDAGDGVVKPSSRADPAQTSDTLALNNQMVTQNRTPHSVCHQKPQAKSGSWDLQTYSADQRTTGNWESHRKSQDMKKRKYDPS
Description: EMSA. In general terms: In EMSA bound probe runs differently from free probe, usually more slowly.

In data set [2] the target is RAD52;RPA (Homo sapiens;human?, UniProt P43351;P27694;P15927;P35244 1-418;1-616;1-270;1-121, |). The data set can be described thus: FRET titration.
Chain of RAD52;RPA (P27694 whole entry, chain 2 of 3): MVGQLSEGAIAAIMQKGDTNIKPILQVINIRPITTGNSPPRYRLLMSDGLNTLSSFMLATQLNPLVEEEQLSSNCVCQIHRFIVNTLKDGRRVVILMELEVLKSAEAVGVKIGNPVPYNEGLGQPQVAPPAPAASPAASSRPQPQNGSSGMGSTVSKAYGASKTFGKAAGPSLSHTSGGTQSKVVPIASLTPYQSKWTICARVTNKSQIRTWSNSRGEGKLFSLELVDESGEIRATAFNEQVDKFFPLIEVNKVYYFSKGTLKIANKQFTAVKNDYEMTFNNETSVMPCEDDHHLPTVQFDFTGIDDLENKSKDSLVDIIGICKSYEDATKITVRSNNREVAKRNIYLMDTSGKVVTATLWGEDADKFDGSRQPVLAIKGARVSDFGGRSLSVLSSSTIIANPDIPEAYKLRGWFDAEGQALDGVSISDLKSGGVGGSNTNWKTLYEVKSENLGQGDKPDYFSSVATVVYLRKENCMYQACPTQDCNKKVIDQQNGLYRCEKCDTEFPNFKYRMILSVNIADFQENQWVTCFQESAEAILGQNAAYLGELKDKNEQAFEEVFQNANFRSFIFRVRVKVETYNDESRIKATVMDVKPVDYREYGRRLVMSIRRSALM
Chain of RAD52;RPA (P15927 whole entry, chain 3 of 3): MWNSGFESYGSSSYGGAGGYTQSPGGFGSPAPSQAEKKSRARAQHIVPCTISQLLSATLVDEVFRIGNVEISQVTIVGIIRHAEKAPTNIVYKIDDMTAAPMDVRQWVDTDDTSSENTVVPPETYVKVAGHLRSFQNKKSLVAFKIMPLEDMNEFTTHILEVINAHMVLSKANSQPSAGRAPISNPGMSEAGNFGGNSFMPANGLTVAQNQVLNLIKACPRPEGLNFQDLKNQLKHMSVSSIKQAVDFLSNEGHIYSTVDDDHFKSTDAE
Chain of RAD52;RPA (P35244 whole entry, chain 4 of 3): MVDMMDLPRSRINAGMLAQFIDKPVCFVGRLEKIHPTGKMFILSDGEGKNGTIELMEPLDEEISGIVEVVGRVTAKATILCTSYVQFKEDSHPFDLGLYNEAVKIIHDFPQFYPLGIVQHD

Consider TTTTTTTTTTTTTTTTTTTTTTTTTTTTTT (ssDNA) [Cy5-(dT)30-Cy3], for which the binding result in data set [1] and in data set [2] was “binds” throughout.
